{"source": "paper PMC9569990", "about": "(International Journal of Molecular Sciences, 2022)", "test_in_all_cases": "SPR; cytokine immobilised on ProteOn GLH sensor chip by amine coupling (9,000-14,000 RU); S100P (wild type or mutant) as analyte, 62 nM-16 µM; 25 °C; 10 mM HEPES, 150 mM NaCl, 1 mM CaCl2, 0.05% TWEEN 20, pH 7.4; heterogeneous ligand model (two ligand populations), one-site model for IL-13; values averaged over analyte concentrations (n = 3-5)", "conditions_in_all_cases": "both partners purified", "key": {"Interleukin-13": {"molecular_target": "T1, Interleukin-13 (human, UniProt P35225 25-146)", "T1 construct": "Interleukin-13, human, UniProt P35225; see the manufacturer's catalogue number; also called IL-13; source: bought: PeproTech (source E. coli)", "T1 sequence (P35225 25-146)": "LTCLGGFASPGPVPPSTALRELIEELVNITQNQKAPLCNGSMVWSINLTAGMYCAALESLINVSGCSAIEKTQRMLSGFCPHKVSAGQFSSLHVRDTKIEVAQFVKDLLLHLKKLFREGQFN"}, "Interleukin-27": {"molecular_target": "T2, Interleukin-27 (human, UniProt Q8NEV9 29-243; Q14213 21-229)", "T2 construct": "the chain used for the SCOP family assignment; also called IL-27; source: bought: PeproTech (source HEK293)", "T2 sequence (looked up) 1": "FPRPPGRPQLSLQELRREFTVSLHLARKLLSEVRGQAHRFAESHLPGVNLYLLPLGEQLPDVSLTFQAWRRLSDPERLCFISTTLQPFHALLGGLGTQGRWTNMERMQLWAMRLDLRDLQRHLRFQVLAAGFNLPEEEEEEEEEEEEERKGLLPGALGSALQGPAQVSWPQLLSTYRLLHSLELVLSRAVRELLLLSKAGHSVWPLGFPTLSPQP", "T2 sequence (looked up) 2": "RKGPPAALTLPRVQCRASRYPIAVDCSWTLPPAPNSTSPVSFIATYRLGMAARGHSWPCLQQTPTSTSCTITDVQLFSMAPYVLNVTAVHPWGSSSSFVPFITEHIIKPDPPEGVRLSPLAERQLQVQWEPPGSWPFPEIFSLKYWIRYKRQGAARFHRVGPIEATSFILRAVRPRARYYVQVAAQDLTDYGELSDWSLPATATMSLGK"}, "[1]": {"molecular_target": "T3, Granulocyte colony-stimulating factor (human, UniProt P09919-2 31-204)", "T3 construct": "Granulocyte colony-stimulating factor, human, UniProt P09919; No catalogue number (n/a); also called G-CSF; source: bought: Pharmstandard (Russia) (source E. coli)", "T3 sequence (looked up)": "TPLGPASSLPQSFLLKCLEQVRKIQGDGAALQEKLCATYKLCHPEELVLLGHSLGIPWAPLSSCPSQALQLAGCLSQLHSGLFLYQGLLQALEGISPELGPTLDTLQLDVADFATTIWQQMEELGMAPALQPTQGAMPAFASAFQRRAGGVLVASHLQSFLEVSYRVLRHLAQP"}, "Interferon ω-1": {"molecular_target": "T4, Interferon ω-1 (human, UniProt P05000 22-195)", "T4 construct": "Interferon omega-1, human, UniProt P05000; see the manufacturer's catalogue number; also called IFN-ω1; source: bought: PeproTech (source E. coli)", "T4 sequence (P05000 22-195)": "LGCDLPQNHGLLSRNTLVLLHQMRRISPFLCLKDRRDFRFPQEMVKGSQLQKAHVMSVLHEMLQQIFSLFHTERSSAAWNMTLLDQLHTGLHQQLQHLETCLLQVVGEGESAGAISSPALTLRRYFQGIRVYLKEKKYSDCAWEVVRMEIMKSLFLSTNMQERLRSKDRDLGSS"}, "Interleukin-15": {"molecular_target": "T5, Interleukin-15 (human, UniProt P40933 49-162)", "T5 construct": "Interleukin-15, human, UniProt P40933; see the manufacturer's catalogue number; also called IL-15; source: bought: PeproTech (source E. coli)", "T5 sequence (P40933 49-162)": "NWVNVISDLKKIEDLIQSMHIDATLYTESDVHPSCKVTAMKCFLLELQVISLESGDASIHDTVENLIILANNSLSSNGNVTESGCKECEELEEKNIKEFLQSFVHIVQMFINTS"}, "[2]": {"molecular_target": "T6, Granulocyte-macrophage colony-stimulating factor (human, UniProt P04141 18-144)", "T6 construct": "Granulocyte-macrophage colony-stimulating factor, human, UniProt P04141; see the manufacturer's catalogue number; also called GM-CSF; source: bought: PeproTech (source E. coli)", "T6 sequence (P04141 18-144)": "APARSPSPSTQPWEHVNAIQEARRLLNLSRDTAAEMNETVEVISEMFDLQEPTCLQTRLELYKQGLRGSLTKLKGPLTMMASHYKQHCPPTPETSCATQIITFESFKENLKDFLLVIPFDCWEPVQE"}}}
{"binder": "Human S100P protein (recombinant, Ca^2+-loaded) (natural protein, S100P protein, human, recombinant; probably the whole 95-residue protein (surmise); also called wild-type S100P; WT S100P; source: E. coli, prepared as previously described [28]) MTELETAMGMIIDVFSRYSGSEGSTQTLTKGELKVLMEKELPGFLQSGKDKDAVDKLLKDLDANGDAQVDFSEFIVFVAAITSACHKYFEKAGLK", "values": [{"measurement": "Kd", "setting": "Interleukin-13", "result": 2300, "unit": "nM"}, {"measurement": "koff", "setting": "Interleukin-13", "result": 0.0183, "unit": "s⁻¹"}, {"measurement": "Kd1 (heterogeneous ligand model, population 1)", "setting": "Interleukin-27", "result": 859, "unit": "nM"}, {"measurement": "Kd2 (heterogeneous ligand model, population 2)", "setting": "Interleukin-27", "result": 1.69, "unit": "µM"}, {"measurement": "kd1 (heterogeneous ligand model, population 1)", "setting": "Interleukin-27", "result": 0.00994, "unit": "s⁻¹"}, {"measurement": "kd2 (heterogeneous ligand model, population 2)", "setting": "Interleukin-27", "result": 0.000357, "unit": "s⁻¹"}, {"measurement": "Kd1 (heterogeneous ligand model, population 1)", "setting": "[1]", "result": 213, "unit": "nM"}, {"measurement": "Kd2 (heterogeneous ligand model, population 2)", "setting": "[1]", "result": 854, "unit": "nM"}, {"measurement": "kd1 (heterogeneous ligand model, population 1)", "setting": "[1]", "result": 0.000315, "unit": "s⁻¹"}, {"measurement": "kd2 (heterogeneous ligand model, population 2)", "setting": "[1]", "result": 0.0154, "unit": "s⁻¹"}, {"measurement": "Kd1 (heterogeneous ligand model, population 1)", "setting": "Interferon ω-1", "result": 174, "unit": "nM"}, {"measurement": "Kd2 (heterogeneous ligand model, population 2)", "setting": "Interferon ω-1", "result": 578, "unit": "nM"}, {"measurement": "kd1 (heterogeneous ligand model, population 1)", "setting": "Interferon ω-1", "result": 0.000571, "unit": "s⁻¹"}, {"measurement": "kd2 (heterogeneous ligand model, population 2)", "setting": "Interferon ω-1", "result": 0.00839, "unit": "s⁻¹"}, {"measurement": "Kd1 (heterogeneous ligand model, population 1)", "setting": "Interleukin-15", "result": 102, "unit": "nM"}, {"measurement": "Kd2 (heterogeneous ligand model, population 2)", "setting": "Interleukin-15", "result": 980, "unit": "nM"}, {"measurement": "kd1 (heterogeneous ligand model, population 1)", "setting": "Interleukin-15", "result": 0.00109, "unit": "s⁻¹"}, {"measurement": "kd2 (heterogeneous ligand model, population 2)", "setting": "Interleukin-15", "result": 0.0272, "unit": "s⁻¹"}, {"measurement": "Kd1 (heterogeneous ligand model, population 1)", "setting": "[2]", "result": 245, "unit": "nM"}, {"measurement": "Kd2 (heterogeneous ligand model, population 2)", "setting": "[2]", "result": 450, "unit": "nM"}, {"measurement": "kd1 (heterogeneous ligand model, population 1)", "setting": "[2]", "result": 0.00113, "unit": "s⁻¹"}, {"measurement": "kd2 (heterogeneous ligand model, population 2)", "setting": "[2]", "result": 0.0672, "unit": "s⁻¹"}]}
